How the values were obtained:
[1] = biological target: TRTK12 (CapZ peptide) TRTK12 (Homo sapiens) (UniProt P52907); details: cited from earlier work
S100A1 = biological target: T1, S100A1 (Rattus norvegicus, UniProt P35467); details: read-out: KD of S100A1 for RyRP12; ref [36]; [47]; cited from earlier work
T1 sequence (P35467 2-94 limits assumed): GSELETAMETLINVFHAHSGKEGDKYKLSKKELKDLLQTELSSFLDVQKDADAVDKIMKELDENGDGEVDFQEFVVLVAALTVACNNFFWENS

RyRP12 RyRP12 = RyRP12 RyRP12 (UniProt P21817); details: cited from earlier work
[2] = biological target: T2, TRTK12 (CapZ alpha subunit peptide) (not fully specified)
T2 chain: Ac-TRTKIDWNKILS-NH2

[3] = biological target: T3, TAMRA-TRTK12 (CapZ alpha subunit peptide) (not fully specified); assay: fluorescence anisotropy
T3 chain: {TAMRA}-TRTKIDWNKILS-NH2

In the case of S100B (from UniProt P04631), the Kd [1] is listed as 7 µM.

For KKAVWHKLLSKQ [RyRP12], the Kd (S100A1) is given as 8 µM.

In the case of S100A1 (from UniProt P35467), the Kd (RyRP12 RyRP12) is listed as 8 µM.

B1: S100A1 (protein)
chain: MGSELETAMETLINVFHAHSGKEGDKYKLSKKELKDLLQTELSSFLDVQKDADAVDKIMKELDENGDGEVDFQEFVVLVAALTVACNNFFWENS
In the case of B1, the Kd [2] is reported as 23 µM and the Kd [3] is reported as 1 µM.
